± gives the uncertainty stated by the source.
Test: abundance fitness (aPCA) (normalised: wild type 0, dead -1); higher = more abundant; growth selection in yeast, the domain comes from the species named
Settings: Saccharomyces cerevisiae (strain ATCC 204508 / S288c)

“E3 ubiquitin-protein ligase RSP5 Q365K, P39940” and “E3 ubiquitin-protein ligase RSP5 Q365L, P39940” are within error of each other in abundance fitness: 0.022 ± 0.064 for the first, 0.033 ± 0.058 for the second.

“E3 ubiquitin-protein ligase RSP5 Q365M, P39940” and “E3 ubiquitin-protein ligase RSP5 Q365R, P39940” are within error of each other in abundance fitness: -0.022 ± 0.17 for the first, 0.014 ± 0.043 for the second.

“E3 ubiquitin-protein ligase RSP5 Q365S, P39940” and “E3 ubiquitin-protein ligase RSP5 Q365V, P39940” are within error of each other in abundance fitness: 0.038 ± 0.062 for the first, -0.014 ± 0.045 for the second.

“E3 ubiquitin-protein ligase RSP5 Q365W, P39940” and “E3 ubiquitin-protein ligase RSP5 Q365Y, P39940” are within error of each other in abundance fitness: 0.051 ± 0.08 for the first, -0.004 ± 0.1 for the second.

Compared with “E3 ubiquitin-protein ligase RSP5 Q366A, P39940”, “E3 ubiquitin-protein ligase RSP5 Q366C, P39940” is lower in abundance fitness: 0.047 ± 0.13 for the first, -0.572 ± 0.41 for the second.

First: E3 ubiquitin-protein ligase RSP5 Q366G, P39940
Second: E3 ubiquitin-protein ligase RSP5 Q366H, P39940
The abundance fitness of the first is higher: 0.131 ± 0.064 for the first, -0.304 ± 0.19 for the second.

“E3 ubiquitin-protein ligase RSP5 Q366L, P39940” and “E3 ubiquitin-protein ligase RSP5 Q366R, P39940” are within error of each other in abundance fitness: 0.24 ± 0.11 for the first, 0.117 ± 0.053 for the second.

“E3 ubiquitin-protein ligase RSP5 Q366S, P39940” and “E3 ubiquitin-protein ligase RSP5 Q366T, P39940” are within error of each other in abundance fitness: -0.008 ± 0.077 for the first, 0.054 ± 0.078 for the second.

“E3 ubiquitin-protein ligase RSP5 Q366V, P39940” and “E3 ubiquitin-protein ligase RSP5 Q366W, P39940” are within error of each other in abundance fitness: 0.023 ± 0.11 for the first, -0.001 ± 0.061 for the second.

Compared with “E3 ubiquitin-protein ligase RSP5 Q366Y, P39940”, “E3 ubiquitin-protein ligase RSP5 R340A, P39940” is lower in abundance fitness: 0.307 ± 0.21 for the first, 0.018 ± 0.047 for the second.

Compared with “E3 ubiquitin-protein ligase RSP5 R340C, P39940”, “E3 ubiquitin-protein ligase RSP5 R340D, P39940” is lower in abundance fitness: 0.064 ± 0.059 for the first, -0.256 ± 0.074 for the second.

“E3 ubiquitin-protein ligase RSP5 R340E, P39940” and “E3 ubiquitin-protein ligase RSP5 R340F, P39940” are within error of each other in abundance fitness: -0.01 ± 0.063 for the first, -0.155 ± 0.16 for the second.

“E3 ubiquitin-protein ligase RSP5 R340H, P39940” and “E3 ubiquitin-protein ligase RSP5 R340I, P39940” are within error of each other in abundance fitness: -0.206 ± 0.22 for the first, 0.002 ± 0.087 for the second.

“E3 ubiquitin-protein ligase RSP5 R340K, P39940” and “E3 ubiquitin-protein ligase RSP5 R340L, P39940” are within error of each other in abundance fitness: 0.133 ± 0.081 for the first, 0.078 ± 0.055 for the second.

Going from “E3 ubiquitin-protein ligase RSP5 R340M, P39940” to “E3 ubiquitin-protein ligase RSP5 R340N, P39940”, the abundance fitness falls from 0.052 ± 0.055 to -0.089 ± 0.08.

First: E3 ubiquitin-protein ligase RSP5 R340P, P39940
Second: E3 ubiquitin-protein ligase RSP5 R340Q, P39940
The abundance fitness of the first is lower: -1 ± 0.063 for the first, 0.001 ± 0.054 for the second.

“E3 ubiquitin-protein ligase RSP5 R340S, P39940” and “E3 ubiquitin-protein ligase RSP5 R340T, P39940” are within error of each other in abundance fitness: -0.039 ± 0.057 for the first, -0.108 ± 0.062 for the second.

Compared with “E3 ubiquitin-protein ligase RSP5 R340V, P39940”, “E3 ubiquitin-protein ligase RSP5 R340W, P39940” is lower in abundance fitness: 0.022 ± 0.049 for the first, -0.088 ± 0.054 for the second.

“E3 ubiquitin-protein ligase RSP5 R346A, P39940” and “E3 ubiquitin-protein ligase RSP5 R346C, P39940” are within error of each other in abundance fitness: 0.121 ± 0.05 for the first, 0.095 ± 0.069 for the second.

“E3 ubiquitin-protein ligase RSP5 R346D, P39940” and “E3 ubiquitin-protein ligase RSP5 R346E, P39940” are within error of each other in abundance fitness: 0.307 ± 0.057 for the first, 0.414 ± 0.06 for the second.

“E3 ubiquitin-protein ligase RSP5 R346F, P39940” and “E3 ubiquitin-protein ligase RSP5 R346G, P39940” are within error of each other in abundance fitness: -0.042 ± 0.069 for the first, 0.016 ± 0.044 for the second.

“E3 ubiquitin-protein ligase RSP5 R346H, P39940” and “E3 ubiquitin-protein ligase RSP5 R346K, P39940” are within error of each other in abundance fitness: 0.289 ± 0.096 for the first, 0.192 ± 0.064 for the second.

Going from “E3 ubiquitin-protein ligase RSP5 R346L, P39940” to “E3 ubiquitin-protein ligase RSP5 R346M, P39940”, the abundance fitness rises from 0.078 ± 0.05 to 0.222 ± 0.067.

Going from “E3 ubiquitin-protein ligase RSP5 R346N, P39940” to “E3 ubiquitin-protein ligase RSP5 R346P, P39940”, the abundance fitness falls from 0.185 ± 0.085 to -0.165 ± 0.049.

“E3 ubiquitin-protein ligase RSP5 R346Q, P39940” and “E3 ubiquitin-protein ligase RSP5 R346S, P39940” are within error of each other in abundance fitness: 0.165 ± 0.066 for the first, 0.15 ± 0.05 for the second.

“E3 ubiquitin-protein ligase RSP5 R346T, P39940” and “E3 ubiquitin-protein ligase RSP5 R346V, P39940” are within error of each other in abundance fitness: 0.094 ± 0.053 for the first, 0.056 ± 0.049 for the second.

From the Human Domainome abundance scans (Beltran et al. 2025)
